Test results taken from paper PMC3994145.

Tests used:
[1] = target: human FcγRIIIa/158V on Jurkat cells (human)
[2] = target: human FcγRIIa/131H on Jurkat cells (human) (UniProt P12318)
Chain of UniProt P12318 (P12318 34-317): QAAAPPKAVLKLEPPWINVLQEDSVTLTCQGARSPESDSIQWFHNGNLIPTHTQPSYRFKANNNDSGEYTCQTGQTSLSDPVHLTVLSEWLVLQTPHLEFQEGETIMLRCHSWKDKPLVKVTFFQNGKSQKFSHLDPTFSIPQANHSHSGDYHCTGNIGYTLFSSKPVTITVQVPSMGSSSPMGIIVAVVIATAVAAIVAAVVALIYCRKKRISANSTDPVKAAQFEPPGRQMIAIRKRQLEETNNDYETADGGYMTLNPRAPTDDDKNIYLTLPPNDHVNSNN

Chain of human FcγRIIIa/158V on Jurkat cells (human) (P08637 17-208): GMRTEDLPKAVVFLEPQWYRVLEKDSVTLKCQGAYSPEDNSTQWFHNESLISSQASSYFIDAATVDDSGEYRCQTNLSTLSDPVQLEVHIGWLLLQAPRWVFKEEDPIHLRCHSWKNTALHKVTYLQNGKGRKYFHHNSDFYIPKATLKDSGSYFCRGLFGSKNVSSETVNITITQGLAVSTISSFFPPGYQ

Row | EC50 of luciferase activity of Jurkat/FcγRIIIa/NFAT-Luc cells co-cultured with Daudi cells and serially diluted mAb [1] [µg/mL] | EC50 of luciferase activity of Jurkat/FcγRIIa/NFAT-Luc cells co-cultured with Daudi cells and serially diluted mAb [2] [µg/mL] | Substance
1 | 0.016 | 0.057 | rituximab G236A/S239D/I332E variant (antibody)
2 | 0.034 | – | rituximab (wild-type, anti-CD20 mAb, IgG1) (antibody)
